According to publication PMC13193136:

Tested on: SOX2 DNA-binding domain (human)
Experiment: PIC-NIC microarray
Settings: Protein-specific binding buffers (Supplementary Methods, not in the material), PBM incubation 1 h at room temperature, hybridization simulated at 150 mM Na+ …

Row | Substance | binding signal (fold (reference)) | binding signal (fold signal vs intact duplex) (nick at position 3, 5' phosphate)
1 | SOX2 site intact | 1 | 
2 | SOX2 site nick 3, 5'P retained |  | 3
